Source: doi:10.1101/2025.07.09.663820 (bioRxiv, 2025)

Key:
[1] = target: CHIP13 extracellular domain (residues 33-253) (Lotus japonicus); assay: SEC
[2] = target: CHIP13 extracellular domain (residues 33-253) (Lotus japonicus, UniProt D3KU00, N-glycans (one on N143))

CHIP13 extracellular domain (residues 33-253) (domain or fragment)
stoichiometry N [1]: 2

B1: Nb-aCHIP13 (VHH)
VHH: QLQLVESGGGLVQAGGSLRLSCATSGTTFRLNTMGWYRQAPGKQRELVATISRDFKTNYADSVKGRFTISRDNAKHTVDLQMNSLTPEDTAVYYCLVRDQREWYGPEYDNWGRGTQVTVSS
Kd [2]: 8.1 nM
